Here are results for seven molecules from patent US20240252534A1 (AUTOLUS, published 2024).

In experiment [1] the target is T1, human PSMA expressed on cells (human, UniProt Q04609 1-750).
T1 construct: whole, on cells; also called SupT1-PSMA; SupT1 cells expressing PSMA
The experiment can be described thus: flow cytometry, MFI against concentration, SupT1-PSMA clone 30 (high).

The target in experiment [2] is T2, Recombinant PSMA-His (sino biologicals) (UniProt Q04609 44-750).
T2 construct: also called soluble PSMA; recombinant soluble PSMA; not shown: His tag
As to the kind of experiment: SPR, Biacore T200; VHH-Fc captured on Protein A chip, PSMA-His as analyte, 1:1 Langmuir fit. As for the experimental part:
(§1) Kinetic affinity for soluble PSMA was determined using Biacore T200 instrument. Recombinant purified antibodies were captured on a Protein A chip #7 at 10 μl/min for 60 s, aiming at 100 RU. Recombinant PSMA-His (sino biologicals) dialysed in HBS-P+ buffer was used as analyte from 1 μM with 1:2 serial dilutions for 10 points and flown at 30 μl/min for 150 s with 300 s dissociation time. A double reference subtraction was applied. Sensograms fitted with 1:1 Langmuir model.
Affinity was determined by surface plasmon resonance on a Biacore T200 instrument against recombinant soluble PSMA. Affinities were measured in the nM range for both antibodies (Table 3)

Experiment [3] deals with T1, human PSMA expressed on cells. As to the kind of experiment: flow cytometry histograms, detection aMu-Fc 647, concentration and axis values not given. For orientation: A flow cytometer gives signals particle by particle.
Experiment [4] addresses T2, Recombinant PSMA-His (sino biologicals). The experiment can be described thus: SPR, Biacore T200, pH 6; antibody captured on Protein A chip, PSMA-His as analyte, 1:1 Langmuir fit. As for the experimental part:
as §1, with “soluble PSMA at different pH was determined” for “soluble PSMA was determined”, “A chip #6, pre-equilibrated the required PH (pH7.4, pH7, pH6.5 and pH6) using buffered HBS-P+, at 10” for “A chip #7 at 10”, “dialysed in HBS-P+buffer and adjusted to the required PH was used” for “dialysed in HBS-P+ buffer was used”

Experiment [5] shares this target. The experiment can be described thus: SPR, Biacore T200, pH 7; antibody captured on Protein A chip, PSMA-His as analyte, 1:1 Langmuir fit. As for the experimental part:
as §1, with “soluble PSMA at different pH was determined” for “soluble PSMA was determined”, “A chip #6, pre-equilibrated the required PH (pH7.4, pH7, pH6.5 and pH6) using buffered HBS-P+, at 10” for “A chip #7 at 10”, “dialysed in HBS-P+buffer and adjusted to the required PH was used” for “dialysed in HBS-P+ buffer was used”
For orientation: SPR reads the build-up and loss of mass on a sensor chip optically.

For experiment [6] the target is unchanged. As to the kind of experiment: SPR, Biacore T200, pH 6.5; antibody captured on Protein A chip, PSMA-His as analyte, 1:1 Langmuir fit. As for the experimental part:
as §1, with “soluble PSMA at different pH was determined” for “soluble PSMA was determined”, “A chip #6, pre-equilibrated the required PH (pH7.4, pH7, pH6.5 and pH6) using buffered HBS-P+, at 10” for “A chip #7 at 10”, “dialysed in HBS-P+buffer and adjusted to the required PH was used” for “dialysed in HBS-P+ buffer was used”

For experiment [7] the target is unchanged. The experiment can be described thus: SPR, Biacore T200, pH 7.4; antibody captured on Protein A chip, PSMA-His as analyte, 1:1 Langmuir fit. As for the experimental part:
as §1, with “soluble PSMA at different pH was determined” for “soluble PSMA was determined”, “A chip #6, pre-equilibrated the required PH (pH7.4, pH7, pH6.5 and pH6) using buffered HBS-P+, at 10” for “A chip #7 at 10”, “dialysed in HBS-P+buffer and adjusted to the required PH was used” for “dialysed in HBS-P+ buffer was used”

T2 sequence (Q04609 44-750 limits assumed): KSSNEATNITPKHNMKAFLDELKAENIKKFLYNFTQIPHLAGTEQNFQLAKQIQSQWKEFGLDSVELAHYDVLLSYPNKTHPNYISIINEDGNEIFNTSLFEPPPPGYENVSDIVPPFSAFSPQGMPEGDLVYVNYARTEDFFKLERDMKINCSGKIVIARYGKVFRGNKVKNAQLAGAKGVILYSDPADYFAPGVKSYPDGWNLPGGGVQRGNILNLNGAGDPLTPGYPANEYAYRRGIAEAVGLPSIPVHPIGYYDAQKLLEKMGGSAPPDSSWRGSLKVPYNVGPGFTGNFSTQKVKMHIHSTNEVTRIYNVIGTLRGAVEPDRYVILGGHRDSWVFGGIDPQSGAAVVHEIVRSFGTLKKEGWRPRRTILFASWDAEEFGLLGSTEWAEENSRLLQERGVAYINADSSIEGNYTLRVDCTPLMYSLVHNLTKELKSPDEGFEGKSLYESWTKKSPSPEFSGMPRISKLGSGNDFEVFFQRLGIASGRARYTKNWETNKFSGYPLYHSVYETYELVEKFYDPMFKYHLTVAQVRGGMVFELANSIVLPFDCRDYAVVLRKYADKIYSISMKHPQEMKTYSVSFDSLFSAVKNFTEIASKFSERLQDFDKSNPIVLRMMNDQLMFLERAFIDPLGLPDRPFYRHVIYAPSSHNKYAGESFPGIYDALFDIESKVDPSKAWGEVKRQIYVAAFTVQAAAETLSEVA
T1 sequence (Q04609 whole entry): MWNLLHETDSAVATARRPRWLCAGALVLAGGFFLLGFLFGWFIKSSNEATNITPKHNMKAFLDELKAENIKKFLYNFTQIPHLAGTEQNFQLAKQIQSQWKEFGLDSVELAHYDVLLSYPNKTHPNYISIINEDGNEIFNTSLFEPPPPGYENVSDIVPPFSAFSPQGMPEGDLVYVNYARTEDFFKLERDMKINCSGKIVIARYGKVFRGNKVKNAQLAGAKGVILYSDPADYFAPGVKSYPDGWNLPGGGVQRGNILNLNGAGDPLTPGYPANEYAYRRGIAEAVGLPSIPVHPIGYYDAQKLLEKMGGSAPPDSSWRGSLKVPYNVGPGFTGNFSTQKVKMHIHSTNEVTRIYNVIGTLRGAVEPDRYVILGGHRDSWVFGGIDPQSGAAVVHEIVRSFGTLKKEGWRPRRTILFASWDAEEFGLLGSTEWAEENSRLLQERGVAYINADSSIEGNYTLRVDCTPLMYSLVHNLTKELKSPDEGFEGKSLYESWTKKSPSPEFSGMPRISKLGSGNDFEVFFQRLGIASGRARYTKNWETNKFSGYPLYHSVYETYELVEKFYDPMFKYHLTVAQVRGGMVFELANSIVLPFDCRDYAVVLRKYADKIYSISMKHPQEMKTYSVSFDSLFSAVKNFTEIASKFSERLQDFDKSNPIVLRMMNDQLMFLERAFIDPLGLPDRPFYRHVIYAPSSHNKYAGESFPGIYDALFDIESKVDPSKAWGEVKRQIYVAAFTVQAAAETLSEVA

B1: dAb clone G7, C Myc tagged (VHH)
VHH: QVQLQESGGGSVQAGGSLRLSCAASERTFSTYGTGWFRQAPGKEREFVAGISGRGGYTSYIDSVKGRFTTSRDNAKNTVYLQMNSLKPEDTAVYYCAADRRMVWGTVRSPDEYDSWGQGTQVTVSS
notes: Monomeric dAb from IPTG-induced TG1 supernatant, detected with anti-C Myc; also called G07; not shown: C-Myc tag
For the molecule B1, the “EC50 (read off the curve)” value in experiment [1] is roughly 0.7 µg/mL.

B2: G07 VHH-Fc (Fc fusion)
chain: QVQLQESGGGSVQAGGSLRLSCAASERTFSTYGTGWFRQAPGKEREFVAGISGRGGYTSYIDSVKGRFTTSRDNAKNTVYLQMNSLKPEDTAVYYCAADRRMVWGTVRSPDEYDSWGQGTQVTVSS
notes: also called G7; clone G7; not shown: Fc part of the VHH-Fc format
As for B2, in experiment [2], the dissociation constant (Kd) came out at 316 nM.

B3: NGS2 dAb in murine IgG2A-Fc format (Fc fusion)
chain: QVQLQESGGGWVQAGGSLRLSCAASGRTSRTYTMGWFRQAPGKDGVFVAGITWSTWSSDKTQYLDSVNSRFTISRDNARNTVYLQMNNLKPEDTAVYYCAATPRYYGVAVPTTRGPYDYWGQGTQVTVSS
notes: also called clone 2; dAb 2; not shown: murine IgG2A Fc
Turning to B3, the binding result in experiment [3] was “binds”.

B4: 7A12 (antibody, V domains shown)
VH: QFQLQQSGPELVKPGASVKISCKASGYAFSSSWMNWVRQRPGKGLEWIGRIYPGDGDTTYNGNFKDKATLTAAKSSSTAYIQINSLTSEDSAVYFCARGTGYLWYFDVWGAGTTVTVSS
VL: DIQMTQSPSSLSTSLGGKVTITCKASQDINENVAWYQHKPGKGPRLLIWYTSALQSGIPSRFSGSGSGRDYSFSISNLEPEDIATYYCQQYDNLPFTFGSGTKLEIKR
notes: Tested as 'recombinant purified antibody' captured on a Protein A chip; also called mu7A12; AU number 30531
With B4, the Kd came out at 0.574 nM in experiment [4], 1.77 nM in experiment [5], 1.02 nM in experiment [6] and 2.29 nM in experiment [7].

B5: dAb clone B8, C Myc tagged (VHH)
VHH: QVQLQQSGGGLVQAGGSLRLSCAASGRTYGRYVMGWFRQIPGKEREFVAAISWSGSNTNYADSVKGRFTISRDNAKNTLYLQMNSLKPEDTAVYYCAASGQWIIPTTARGYDDWGQGTQVTVSS
notes: Monomeric dAb from IPTG-induced TG1 supernatant, detected with anti-C Myc; also called B08; not shown: C-Myc tag
For the molecule B5, in experiment [1], the “EC50 (read off the curve)” value was roughly 1 µg/mL.

B6: B08 VHH-Fc (Fc fusion)
chain: QVQLQQSGGGLVQAGGSLRLSCAASGRTYGRYVMGWFRQIPGKEREFVAAISWSGSNTNYADSVKGRFTISRDNAKNTLYLQMNSLKPEDTAVYYCAASGQWIIPTTARGYDDWGQGTQVTVSS
notes: also called B8; clone B8; not shown: Fc part of the VHH-Fc format
Consider B6, for which the dissociation constant Kd in experiment [2] was found to be 212 nM.

B7: 7A12 humanised (antibody, V domains shown)
VH: QVQLVQSGAEVKKPGASVKVSCKASGYTFTSSWMNWVRQAPGQGLEWMGRIYPGDGDTNYAQKFQGRVTMTRDTSISTAYMELSRLRSDDTAVYYCARGTGYLWYFDVWGQGTMVTVSS
VL: EIVLTQSPATLSLSPGERATLSCRASQDINENLAWYQQKPGQAPRLLIYYTSNRATGIPARFSGSGSGRDFTLTISSLEPEDFAVYYCQQYDNLPFTFGQGTKVEIKR
notes: Tested as 'recombinant purified antibody' captured on a Protein A chip; also called hu7A12; AU number 42396
Take B7: the Kd in experiment [4] was determined as 0.532 nM; in experiment [5], 3.3 nM; in experiment [6], 1.71 nM; in experiment [7], 3.66 nM.

One may read the EC50 (read off the curve) as the concentration needed to bring the measured effect to its halfway point. Low readings indicate greater potency, high ones weaker potency. For orientation: Kd means the constant that tells how readily two partners part at equilibrium.
